Measured values as given in patent US20240398963A1 (priority 2021, published 2024).

Assay type: physicochemical
Conditions: 10 mM PBS buffer (pH=7.4), 37° C., 100 rpm shaker; free drug by HPLC, average release per day
Procedure: The drug release and stability experiments were run using the test compounds. About 2.5±1.0 mg/mL (with regard to conjugate) solution of each test compound was prepared with 10 mM PBS buffer (pH=7.4) in Millipore Amicon® Ultra-0.5 ml 30 k Ultrafiltration centrifuge tube. The solution was kept swelling for 1 h at room temperature and then placed in a shaker at 100 rpm, 37° C. for continuous experiment. At the same time point of each day, samples were centrifuged at 10000 rpm for 1 h. The aliquot was transferred to HPLC vial for analysis. An 0.4 mL of 10 mM PBS buffer was added into the centrifuge tube and continue the experiment.
For the HPLC analysis at each time point, the peak areas of all relevant peaks from the chromatograms were retrieved and the concentration of free drug was calculated. Average release of free drug was calculated based on the sum of free drug and numbers of experiment days. The computing equation is as below.
The sample degradation rate was calculated based on the concentration and degree of substitution (NMR) for conjugated drug with regard to the initial starting point of the experiment (at t=0). The computing equation is as below.

Q: Which Release rate does the source give for “Conjugate of HA and 5-aminopentyl (2-((8S,9S,10R,11S,13S,14S,17R)-11,17-dihydroxy-10,13-dimethyl-3-oxo-2,3,6,7,8,9,10,11,12,13,14,15,16,17-tetradecahydro-1H-cyclopenta[a]phenanthren-17-yl)-2-oxoethyl) carbonate [Example 90]” here?
A: 4.56 %/day

Q: Which Release rate does the source give for “Conjugate of HA and 5-aminopentyl (2-((8S,9S,10R,11S,13S,14S,17R)-11,17-dihydroxy-10,13-dimethyl-3-oxo-6,7,8,9,10,11,12,13,14,15,16,17-dodecahydro-3H-cyclopenta[a]phenanthren-17-yl)-2-oxoethyl) carbonate [Example 85]” here?
A: 7.65 %/day

Q: For “Conjugate of HA and 5-aminopentyl (2-((8S,9S,10R,13S,14S,17R)-17-hydroxy-10,13-dimethyl-3,11-dioxo-2,3,6,7,8,9,10,11,12,13,14,15,16,17-tetradecahydro-1H-cyclopenta[a]phenanthren-17-yl)-2-oxoethyl) carbonate [Example 91]”, which Release rate is on record?
A: 11.66 %/day

Q: Which Release rate does the source give for “Conjugate of HA and 5-aminopentyl (2-((8S,9S,10R,13S,14S,17R)-17-hydroxy-10,13-dimethyl-3,11-dioxo-6,7,8,9,10,11,12,13,14,15,16,17-dodecahydro-3H-cyclopenta[a]phenanthren-17-yl)-2-oxoethyl) carbonate [Example 89]” here?
A: 8.12 %/day
